Data as given in the nanobody polyreactivity screen of Harvey et al. (2022).

experiment: yeast display, Sf9 membrane polyspecificity reagent, FACS + sequencing; frameworks hold sequencing errors
Procedure, shortened: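 Polyreactivity labels are assigned by the sorting gate from which each nanobody was recovered. The gates were low and high (top ~1%), set on anti-HA fluorescence for expression and streptavidin fluorescence for reagent binding. Before sorting, galactose-induced (36–48 hours) yeast display cells were stained for 1 hour at 4 °C with 10% biotinylated, detergent-solubilized Sf9 membrane reagent.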

Sequence | polyreactivity (PSR sort gate)
QVQLVESGGGLVQAGGSLRLSCAASGSTFYYNGMGWYRQAPGKEREFVAAITSSGTSTHYADSVKGRFTISRDNAKNTVYLQMNSLKPEDTAVYYCNRYGAHVSTAYYYWGQGTQVTVSS | high polyreactivity
QVQLVESGGGLVQAGGSLRLSCAASGLIFGFYAMGWYRQAPGKEWELVAAINSGGITYYADSVKGRFTISRDNAKNTVYLQMNSLKPEDTSVYYCAAVHSRRARYDYWGQGTQVTVSS | low polyreactivity
QVQLVESGGGLVQAGGSLRLSCAASGNIFDIYAMGWYRQATGKERELVAAICSGGSTYYADSVKGRFTISRDNAKNTVYLQMISLKTEDTAVDYCAESRVGYYRYEYWGQGTQVTVSS | low polyreactivity
QVQLGESGGGLVQAGGSLRLSCAASGRTFGLYAMGWYRQAPGKERELVAAISRGTSTNYADSVKGRFTISRDNAKNTVYLEMYSLKPEDTAVYYCNARRKFVGKWGDYWGQGTQVTVSS | low polyreactivity
QVQLVESGGGLVQAGGSLRLSCAASGLTFYYYVMAWYRQAPGKERELVAAISRSGGSTRYADSVKGRFTISRDNANNTVYLQMNSLKPEDTAVYYCNAVRYPRLMYYWGQGTQVTVSS | high polyreactivity
QVQLVESGGGLVQAGGSVRLSCAASGSIFNANTMGWYRQAPGKERELVAVITSGGTTNYADSVKGRFTISRDNAKNTVYLQMNSLKPEDTAVYYCAVRISGNWYDYWGQGTQVTVSS | low polyreactivity
QVQLVESGGGLVQAGGSLRLSCAPSGRIYATYAMGWYRQAPGKDSELVAAISDSGGRTYYADSVKGRFTISRDNAKNTVYLQMKSLKPEVNAVYYCAAKNGDRYARGYWGQGTQVNVSS | high polyreactivity
QVQLVESGGGLVQAVGSLRLSCAASGFTFERNAMGWYRQAPGKARELVATINGSSDSTYYADSVKGRFTISRDKAKNTVYLQMNSLKPEDTAVYYCNADSITEGNSRYSHFDYWGQGTQVTVSS | low polyreactivity
QVQLVESGGGLVQAGGSLRLSCAASGFTFVYYVMGWYRQAPGKERELVAAIRSGDGNTHYADTEKGRFTISRDNAKNTVYLQMNSLKPEDTAVYYCAASSRTFGYKYFYWGQGTQVTVSS | high polyreactivity
QVQLVESGGGLVQAGGSLRLSCAASGGTFGRYAMGWYRQAPGKERELVASITTGGRTNYADSVKGRFTISRDNAKNTVYLQMNSLKPEDTAVYYCAKKRYGYPVPFYYWGQGTQVTVSS | high polyreactivity
QVQLVESGGGLVQAGGSLRLSCAASGSTFWDNAMGWYRQAPGKERELVAAITAIGGTTYYADSVKGRFTISRDNAKNTVYLQMNSLKPEDTAVYYCAADWTTYGFSYFSIYYYWGQGTQVTVSS | low polyreactivity
QVQLVESGGGLVQAGGSLRLSCAASGSIFTYNAMGWYRQAPGKERELVAAITRSGGRTYYADSVKGRFTISRDTAKNTVYLQMNSLKPEATAVYYCNTLRVGWGQGTQVTVSS | high polyreactivity
QVQLVESGGGLVQAGGSLRLSCAASGSIFKFYTMGWYIQAPGKERELVATITSGGRTNYADSVKGRFTISPDNAKNTVYLQMNTLKPEDTAVYYCAATWLRVKYRFKGYDYWGQGTQVTVSS | high polyreactivity
QVQLVESGGGLVQAGGSLRLSCAASGLTFYRYAMGWYRQAPGKERELVAAITSSGRTNYADSVKGRFTISRDNAKNTVYLQMNSLKPEDTAVYYCNAVRRTFNGPGSSQGYDYWGQGTQVTVSS | high polyreactivity
QVQLVESGGGLVQAGGILRLSCAASGSTFGYYAMGWYRPAPGKERELVAAIRSDDITYYADSVKGRFTISRDNAKNTVYLQMISLKPEDTAVYYCAVSQRYGGRRGCYWGQGTQVTVSS | low polyreactivity
QVQLVESGGGLVQAGGSLRLSCAASGRIFNLYAMGWYRQAPGKERELVAAISSGGSTYYADSVKGRFTISRDNAKNTVYLQMNSLKPEDTAVYYCAAKNGDRYARGYWGQGTQVTVSS | high polyreactivity
QVQLVESGGGLVQAGGSLRLSCAASGSTFLYYAMGWYRQAPGKERELVAAITWSGGRTYYADSVKGRFTISRDNAKNTVYLQMNSLKPEVTAVYYCNKAYPWLRSTALNPGLYDYWGQGTQVTVSS | high polyreactivity
QVQLVESGGGLVQAGGSLRLSCAASGRTLGPNAMGWYRQAPGKERELVAAISWSGGSTYYADSVKGRFTISRDNAKNTVYLQMNSLKPEDTAVYYCAAEWYWVYYVPYEYWGQGTQVTVSS | low polyreactivity
QVQLVESGGGLVQAGGSLRLSCAASGRIFDNYAMGWYRQAPGKERELVAAITYIDSGTYYADSVKGRFTISRDNAKNTVYLQMNSLKPEDTAVYYCAVRLNSDSKRKTQKFGYWGQGTQVTVSS | low polyreactivity
QVQLVESGGGLVQAGGSLRLSCGASGRTFYSYAMGWYRQEHGKERELVATITNGDTTNYADSVKGRFTISRDNAKNTVYLQMNSLKQEDTAVYYCAKDISPGYDEYDYWGQGTQVTVSS | low polyreactivity
QVQLVESVGGLVQAGGSLRLSCAASGRIFRYYAMGWSSQAPGKESELVAAITSDGRTYYADSVKGRFTISRDNAKNTVYLQMNSQKPEDTAVYYCAADHHSYRYGGYYYWGQGTQVTVAS | low polyreactivity
QVQLVESGGGLVQAGGILRLSCAASGRTFLYYAMGWYRQAPGKERELVAGITSGGSTNYADSVKGRFTISRDTAKNTDYLQMNSLKPEDTAVYYCAVDQGYYRTADVNYDYWGQGTQVTVSS | low polyreactivity
QVQLVESGGGLVQAGGSLRLSCAASGFIFWYYAMGWYRPAPGQERELVAAIRRGGSTNYADSVKGRFTISRDNAKNTVYLQMNSLKPEDTAVYYCAADVPRDTFDSWGQGTQVTVSS | low polyreactivity
QVQLEESGGGLVQAGGSLRLSCAASGNILFKYAMGWNRQAPGKERELVASITSRGGSTYYADSVKGRFTISRDNAKNTVYLQMNSLKPEDTAVYYCAVDADEVTFDYWGQGTQVTVSS | low polyreactivity
QVQLVESGGGLVQAGGSLRLISAASGSTFKIYAMGWYRQAPGKERELVAAITWSGGSTYYADSVKGRFTISRDNAKNTVYLQMNSLKPEDPAVYYCAAVQTYSRYYYWGQGTQVTVSS | high polyreactivity
QVQLVESGGGLVQAGGSLRLSCAASGSIFYHYSMGWYRQAPGKERELVAAITRSGGSTYYADSVKGRFTISRDNAKNTVFLQMNSLNPEDTAVYYSAKDPDSYNFLTSNWYDYWGLGTQVTVSS | low polyreactivity
QVQLVESGGGIVQAGCSLRLSCAASGSIFSHNAKVGYRQAPGKERELVAAITKGGGRTYYADSVKGRFTISRDNAKNTVYLQMNSLKPEDNAVYYCATAGAHGRERDYWGQGTQVTVSS | high polyreactivity
QVQLVESGGGLVHAGGSLRLSCAASGFTFDSNDKGWYRQAPGKERELVAAISTGGSTYYADSVKGRFTISRDNAKNTVYLQMNRLKPEDTAVYYCARDPPYPDTWYGYWGQGSQVTVSS | low polyreactivity
QVQLVESGGGLVQAGGSLRLSCAASGSTFSSYAMGWYRQAPGKEREFVAAINTDGGSTYYADSVKGRFTISRDNAKNTVYLQMNSLKPEDTAVYYCAARYYWPWYSSYDYWGQGTQVTVSS | low polyreactivity
QVQLVESGGGLVQAGGSLRLSCAASGSIFVAYAKGWYRPAPGKERELVAAISSSGGTTYYADSVKGRFTISRDNAKITVYLQMNSLKPEDSAVYYCAARDYKYYYWGQGTQVTVSS | high polyreactivity
